flaA mRNA, RNA slot blot hybridization, HP1122-inactivated strain against wild type and fold decrease in flaA mRNA, RNA slot blot hybridization, HP1122-overexpressing N6 strain against wild type data for 1 substance are collected here from patent US20020192796A1.

This experiment concerns the target HP1032 protein, sigma28 factor of RNA polymerase (FliA) of Helicobacter pylori (Helicobacter pylori strain 26695). The experiment can be described thus: cell-based or functional assay.

As for “HP1122 protein, anti-sigma28 factor (FlgM) of Helicobacter pylori”, the flaA mRNA, RNA slot blot hybridization, HP1122-inactivated strain against wild type was found to be 2.5 fold and the fold decrease in flaA mRNA, RNA slot blot hybridization, HP1122-overexpressing N6 strain against wild type was determined as 2 fold.
